“Also recorded” adds a separate entry of the source. Marks after values point to notes of the source that are not given here.
B1: rRNase A-1: recombinant carboxy-terminal FLAG-tagged Gallus gallus leukocyte RNase A-1, SEQ ID NO: 2, GenBank DQ395275 (protein, listed as Gallus gallus)
chain: VPTYQDFLRTHVDFPKTSFPNIAAYCNVMMVRRGINVHGRCKSLNTFVHTDPRNLNTLCINQPNRALRTTQQQLPVTDCKLIRSHPTCSYTGNQFNHRVRVGCWGGLPVHLDGTFP
modifications: C-terminal FLAG tag
B2: rRNase A-2: recombinant carboxy-terminal FLAG-tagged Gallus gallus leukocyte RNase A-2, SEQ ID NO: 4, GenBank DQ395276 (protein, listed as Gallus gallus)
chain: VPTYQDFLYKHMDFPKTSFPSNAAYCNVMMVRRGMTAHGRCKSFNTFVHTDPRNLNTLCINQPDQALRTTRRHFRITDCKLIRSHPTCRYSGNQFNRRVRVGCRGGLPVHLDGTSP
modifications: C-terminal FLAG tag

Columns and labels:
[1] = tested on: poly U, poly C, poly A, poly G, poly I, double-stranded RNA; experiment: ribonuclease assay, substrate preference (polyribonucleotides); assay type: biochemical; conditions: 50 pmol rRNase, pH 7.0; for hydrolysis of poly U: 250 μg/ml poly U
Procedure: (§1) FIGS. 4 A-D are graphs showing the ribonucleolytic activity of recombinant leukocyte RNases. (A) is a graph showing the optimum pH for RNase activity. Enzymatic activity was determined with 50 pmol rRNase A-1 (open squares) and rRNase A-2 (closed circles) that was incubated with 250 μg/ml yeast tRNA in 40 mM sodium phosphate buffer at the pHs indicated. Measurements of A260 per time were converted to pmol/s as described in […] and Methods. (B) is a graph showing the initial rates for RNase activity. Enzymatic activity was determined as described in (A) with 40 mM sodium phosphate buffer, pH 7.0. (C) is a graph showing the substrate preference for RNase activity. 50 pmol rRNase A-1 (left panel) and rRNase A-2 (right panel) proteins were incubated with 250 μg/ml of poly U (open squares), poly C (closed circles), poly A (open diamonds), poly G (open triangles) and poly I (open circles) in 40 mM sodium phosphate buffers, pH 7.0. A260 was measured after precipitation of undigested RNA at each of the time points indicated. (D) is two panels of graphs showing interaction of RNase with human placental RNase inhibitor (hPR1). RNase activity was measured with […] of bovine pancreatic RNase (left) or […] rRNase A-1 and rRNase A-2 (right) with 250 μg/ml of yeast tRNA as substrate with (+) or without (−) 200 U human placental RNase inhibitor (hPR1) in 40 mM sodium phosphate buffer, pH 7.0. The hPR1 was added to the RNases in buffer 5 min prior to initiation of RNase assay by addition of substrate. *p<0.01.
(§2) The ribonuclease (RNase) assay with yeast tRNA substrate has been described in detail elsewhere. In this study, 10 μL of a 20 mg/ml solution of yeast tRNA, polyuridylic acid (poly U), polyadenylic acid (poly A), polycytidylic acid (poly C), polyguanylic acid (poly G), or polyinosinic acid (poly I) (Sigma-Aldrich) were added to 800 μl of 40 mM sodium phosphate buffer, pH 7.0 containing recombinant FLAG-tagged chicken RNase protein. In experiments in which the pH optimum was to be determined, 40 mM sodium phosphate buffers of pH 5.0, 5.5, 6.0, 6.5, […] or 8.0 were used instead of the buffer of pH 7.0. In some experiments, 200 U human placental RNase inhibitor (Boehringer Mannheim) were added prior to the addition of the tRNA substrate. Conversion of units A260 per unit time to pmol/s were performed as described in [29], based on the following conversion factors: the average molecular weight of a molecule of tRNA is 28,100 (75-90 ribonucleotides/tRNA molecule×341 MW per ribonucleotide) with an A260 of 1.0 corresponding to 40 μg of RNA.

chicken aortic rings = experiment: chick aortic ring assay (angiogenesis); assay type: cell-based; conditions: for blood vessel formation in aortic rings (in words) / Angiogenesis Scores: 2 μM recombinant RNase; for blood vessel formation in aortic rings (in words): ex vivo; for Angiogenesis Scores: 24 h, Mean ± SEM, 6 to 8 rings; for % change of angiogenesis score vs control: 2 μM, ([rRNase − control]×100/[control])
Source text: The angiogenic activity of a particular RNase A polypeptide or fragment can be assessed by known protocols, such as that described in the methods section and the following described protocol, herein referred to as “a standard angiogenesis assay.” For example, the chick aortic ring sprouting assay, described in the art, can be a standard angiogenesis assay according to the invention. In the assay, aortic arches are dissected from 13-day-old chicken embryos, cleaned free of unwanted tissue and cut into 0.8 mm slices. Each ring is transferred into center of a well of 96-well plate, and ice-cold Matrigel (Becton Dickinson, Bedford, Mass.) is added immediately to imbed the ring. After solidification of the Matrigel, human endothelial-SFM basal growth medium (Invitrogen) is added to each well. After addition of recombinant leukocyte RNase A-1 or RNase A-2 or control preparation, the rings are incubated at 37° C. for 24 h. Vessels sprouted from rings are observed under microscopy, and assessed by blinded observers.
Both chicken leukocyte RNases are structurally related to the mammalian angiogenin lineage, as discussed above and illustrated in FIG. 1. However, none of the non-mammalian ribonucleases evaluated thus far have been reported to have angiogenic activity. Here, the potential angiogenic activity of recombinant leukocyte RNases A-1 and A-2 was evaluated using the chick aortic ring assay as described in the literature. Briefly, aortic rings prepared from 13 day-old chick embryos were incubated with 2 μM recombinant leukocyte RNases (rRNases).
Table 1 details the results of the chick aortic ring assay. Specifically, vessels sprouted from aortic rings treated with 100 μl of human endothelial-SFM basal growth medium and 2 μM recombinant leukocyte RNase were observed under microscopy and assessed by blinded observers, according previously published methods. Each of the groups (named Exp. 1 and Exp. 2) were composed of 6 to 8 rings. Percent (%) change is a value that represents ([rRNase A-1 or A-2−control]×100/[control]). *p<0.05, as determined using the Student's t-test.
The chick aortic ring sprouting assay was performed as described previously with minor modifications. Aortic arches were dissected from 13-day-old chicken embryos, cleaned free of unwanted tissue and cut into 0.8 mm slices. Each ring was transferred into center of a well of 96-well plate. Ice-cold 10 μl of Matrigel (Becton Dickinson, Bedford, Mass.) were added immediately to imbed the ring. After the Matrigel was solidified, 100 μl of human endothelial-SFM basal growth medium (Invitrogen) was added to each well. After addition of recombinant leukocyte RNase A-1 or RNase A-2 or control preparation, the rings were incubated at 37° C. for 24 h. Vessels sprouted from rings were observed under microscopy, and assessed by blinded observers. Each groups composed of 6 to 8 rings.

yeast tRNA = experiment: ribonuclease assay with yeast tRNA substrate; assay type: biochemical; conditions: for Optimum pH for RNase activity: 50 pmol rRNase, 40 mM sodium phosphate buffers pH 5.5 to 8.0; for Km / kcat: 40 mM sodium phosphate buffer
Procedure: as §1
Next, the enzymatic activity of the two recombinant leukocyte RNases was characterized. Optimum pH was determined as 7.0 with 50 pmol rRNase A-1 or A-2, with 200 μg yeast tRNA substrate in 40 mM sodium phosphate buffers ranging from pH 5.5 to 8.0, as shown in FIG. 4A. […] Enzymatic activity was measured using 10 pmol rRNase A-1 or rRNase in 40 mM sodium phosphate buffer, pH 7.0. Conversion from A260 to pmol ribonucleotide product was carried out as described in reference 29 and in the Methods.
as §2

Row | Molecule | hydrolysis of poly U [1] | polyribonucleotides other than poly U as substrates ([1]; 250 μg/ml substrate) | blood vessel formation in aortic rings (in words) (chicken aortic rings) | Angiogenesis Scores (chicken aortic rings; Exp. 1) | % change of angiogenesis score vs control (chicken aortic rings; Exp. 1) | Angiogenesis Scores (chicken aortic rings; Exp. 2) | % change of angiogenesis score vs control (chicken aortic rings; Exp. 2) | Optimum pH for RNase activity (yeast tRNA) | Km (yeast tRNA; pH 7.0) | kcat (yeast tRNA; pH 7.0) | cleavage of poly C and poly A ([1]; 250 μg/ml substrate) | Km, times lower than that for RNase A-1 (yeast tRNA; pH 7.0) | kcat, times lower than that for RNase A-1 (yeast tRNA; pH 7.0)
1 | B1 | hydrolyzed poly U RNA, at initial rates that were roughly equivalent to one another | poor substrates | comparable to that in the control | 0.38 ± 0.13 Arbitary Units | +2.7% | 0.41 ± 0.06 Arbitary Units | +24% | 7.0 | 17.2 µM | 2.61 s⁻¹ |  |  | 
2 | B2 | hydrolyzed poly U RNA, at initial rates that were roughly equivalent to one another |  | Prominent blood vessel formation; also recorded: has angiogenic activity ex vivo | 0.68 ± 0.26* Arbitary Units | +84% | 0.60 ± 0.14* Arbitary Units | +82% | 7.0 | 0.5 µM | 0.056 s⁻¹ | cleaved poly C and poly A, although at initial rates that were lower than those observed for poly U | 34 times | 50 times

— patent US8748572B2, “RNase a peptides, fragments and uses thereof” (priority 2006, dated 2014)
